Experimental data published in publication PMC6166021.

System: T1, NtcA (His6-tagged) (Nostoc sp. PCC 7120), ORF:1390dea6
T1 sequence: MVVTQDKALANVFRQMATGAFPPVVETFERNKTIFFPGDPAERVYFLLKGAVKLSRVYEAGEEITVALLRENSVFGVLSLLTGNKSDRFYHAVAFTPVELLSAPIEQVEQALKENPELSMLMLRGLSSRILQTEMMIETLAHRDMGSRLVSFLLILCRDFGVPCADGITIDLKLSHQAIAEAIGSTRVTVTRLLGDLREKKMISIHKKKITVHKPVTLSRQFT
Assay: EMSA
Settings: EMSA as in Muro-Pastor et al. 1999; buffer, salt, pH and temperature not given in the material

| Sequence | binding |
| --- | --- |
| ATCGATACTCTCGCAACAACGAAAGAATAGTAGTTTCATCAACCTCTAAACCTTTATATCTCCATACCCCTACACCCTAAACCCATATTTTGAGGGTATAGCGTAAGAACCCTACACCCGTCAGCCTCTTCTCCCCCCATTGACATTTTTGAAATATTCTGAAAGATAGAGGCTGATTACCTCCGGGTATATCTTTTTTCGGTAAATTTTTTCAAAAAAACTGTGTTGCCTGTATGAATATTGTTAAGAAAAGTTGCCCGTTGCATTTTGGGAATACGCAGCCGGGTTTTAACTC (double strand) [nsrR1 promoter fragment, mutated NtcA site (TAC to ATG)] | no binding |
| ATCGATACTCTCGCAACAACGAAAGAATAGTAGTTTCATCAACCTCTAAACCTTTATATCTCCATACCCCTACACCCTAAACCCATATTTTGAGGGTATAGCGTAAGAACCCTACACCCGTCAGCCTCTTCTCCCCCCATTGACATTTTTGAAATATTCTGAAAGATAGAGGCTGATTACCTCCGGGTATATCTTTTTTCGGTAAATTTTTTCAAAAAAACTGTGTTGCCTGTTACAATATTGTTAAGAAAAGTTGCCCGTTGCATTTTGGGAATACGCAGCCGGGTTTTAACTC (double strand) [nsrR1 promoter fragment WT (-239 to +50)] | binds |
